From publication PMC4413028 (Science (New York, N.Y.), 2015) come the findings set out here.

The chains are these.
B1: Get3(D57N) (native, full-length S. cerevisiae Get3, ATP hydrolysis mutant) (natural protein)
chain: MDLTVEPNLHSLITSTTHKWIFVGGKGGVGKTTSSCSIAIQMALSQPNKQFLLISTNPAHNLSDAFGEKFGKDARKVTGMNNLSCMEIDPSAALKDMNDMAVSRANNNGSDGQGDDLGSLLQGGALADLTGSIPGIDEALSFMEVMKHIKRQEQGEGETFDTVIFDTAPTGHTLRFLQLPNTLSKLLEKFGEITNKLGPMLNSFMGAGNVDISGKLNELKANVETIRQQFTDPDLTTFVCVCISEFLSLYETERLIQELISYDMDVNSIIVNQLLFAENDQEHNCKRCQARWKMQKKYLDQIDELYEDFHVVKMPLCAGEIRGLNNLTKFSQFLNKEYNPITDGKVIYELEDKE
B2: Get3 (S. cerevisiae, wild-type) co-expressed with 6xHis-Pep12(262-288) (natural protein)
chain: MDLTVEPNLHSLITSTTHKWIFVGGKGGVGKTTSSCSIAIQMALSQPNKQFLLISTDPAHNLSDAFGEKFGKDARKVTGMNNLSCMEIDPSAALKDMNDMAVSRANNNGSDGQGDDLGSLLQGGALADLTGSIPGIDEALSFMEVMKHIKRQEQGEGETFDTVIFDTAPTGHTLRFLQLPNTLSKLLEKFGEITNKLGPMLNSFMGAGNVDISGKLNELKANVETIRQQFTDPDLTTFVCVCISEFLSLYETERLIQELISYDMDVNSIIVNQLLFAENDQEHNCKRCQARWKMQKKYLDQIDELYEDFHVVKMPLCAGEIRGLNNLTKFSQFLNKEYNPITDGKVIYELEDKE

Data set [1] deals with the molecule itself. As to the kind of experiment: SEC-MALS.
Data set [2] concerns the molecule itself. Description: SEC-MALS. This is another data set of the same source.
Data set [3] deals with the molecule itself. Description: sucrose gradient sedimentation.
Data set [4] addresses B2. Description: SEC-MALS.
In data set [5] the target is B1. Description: crystal structure.

As to B1, the “stoichiometry N” value in data set [1] was determined as 2.

In the case of B2, the “stoichiometry N” value in data set [1] turned out to be 4.

B3: 6xHis-tagged Get3(D57N) (natural protein)
chain: MDLTVEPNLHSLITSTTHKWIFVGGKGGVGKTTSSCSIAIQMALSQPNKQFLLISTNPAHNLSDAFGEKFGKDARKVTGMNNLSCMEIDPSAALKDMNDMAVSRANNNGSDGQGDDLGSLLQGGALADLTGSIPGIDEALSFMEVMKHIKRQEQGEGETFDTVIFDTAPTGHTLRFLQLPNTLSKLLEKFGEITNKLGPMLNSFMGAGNVDISGKLNELKANVETIRQQFTDPDLTTFVCVCISEFLSLYETERLIQELISYDMDVNSIIVNQLLFAENDQEHNCKRCQARWKMQKKYLDQIDELYEDFHVVKMPLCAGEIRGLNNLTKFSQFLNKEYNPITDGKVIYELEDKE
Regarding B3, the “stoichiometry N” value in data set [2] was 2.

B4: Get3 (S. cerevisiae, full-length, wild-type) (natural protein)
chain: MDLTVEPNLHSLITSTTHKWIFVGGKGGVGKTTSSCSIAIQMALSQPNKQFLLISTDPAHNLSDAFGEKFGKDARKVTGMNNLSCMEIDPSAALKDMNDMAVSRANNNGSDGQGDDLGSLLQGGALADLTGSIPGIDEALSFMEVMKHIKRQEQGEGETFDTVIFDTAPTGHTLRFLQLPNTLSKLLEKFGEITNKLGPMLNSFMGAGNVDISGKLNELKANVETIRQQFTDPDLTTFVCVCISEFLSLYETERLIQELISYDMDVNSIIVNQLLFAENDQEHNCKRCQARWKMQKKYLDQIDELYEDFHVVKMPLCAGEIRGLNNLTKFSQFLNKEYNPITDGKVIYELEDKE
With B4, in data set [3], the “stoichiometry N” value turned out to be 2.

In the case of KRTSRWRVYLLIVLLVMLLFIFLIMKL (domain or fragment) [Pep12(262-288), truncated TA substrate with N-terminal 6xHis tag], the binding result in data set [4] and in data set [5] was “binds” each time.

Take KINFDLLISQYAPIVIVAFFFVFLFWWIFLK (domain or fragment) [Sec22(184-214), truncated TA substrate with N-terminal 6xHis tag]: in data set [5], the binding result is given as “binds”.
